Results taken from publication PMC7099064.

Key:
Pin1 (HA-Pin1, GST-Pin1) [1] = target: Pin1 (HA-Pin1, GST-Pin1) (UniProt Q13526); assay: co-IP of HA-Pin1 with Myc-Kv4.2; conditions: reference: wild type; sites T607
Pin1 (HA-Pin1, GST-Pin1) [2] = target: Pin1 (HA-Pin1, GST-Pin1) (UniProt Q13526); assay: Affi-Gel peptide pulldown from lysate

Kv4.2 (Myc-Kv4.2; synthetic C-terminal peptides) (from UniProt Q9NZV8) T607A
binding against the reference (Pin1 (HA-Pin1, GST-Pin1) [1]): weaker

Kv4.2 (Myc-Kv4.2; synthetic C-terminal peptides) (from UniProt Q9NZV8) pT602 peptide
binding against the reference (Pin1 (HA-Pin1, GST-Pin1) [2]; reference: non-phospho peptide, sites T602): stronger

Kv4.2 (Myc-Kv4.2; synthetic C-terminal peptides) (from UniProt Q9NZV8) pT602, pT607 peptide
binding against the reference (Pin1 (HA-Pin1, GST-Pin1) [2]; reference: non-phospho peptide, sites T602,T607): stronger | binding against the reference (Pin1 (HA-Pin1, GST-Pin1) [2]; reference: pT607 peptide, sites T602): stronger

Kv4.2 (Myc-Kv4.2; synthetic C-terminal peptides) (from UniProt Q9NZV8) pT607 peptide
binding against the reference (Pin1 (HA-Pin1, GST-Pin1) [2]; reference: non-phospho peptide, sites T607): stronger
